From patent US20160060360A1

These substances were tested against recombinant human FcγRIIb protein (R&D Systems) (human) (UniProt P31994) (assay: Biacore, 'according to the data herein').
Sequence of recombinant human FcγRIIb protein (R&D Systems) (human) (P31994 46-217 limits assumed): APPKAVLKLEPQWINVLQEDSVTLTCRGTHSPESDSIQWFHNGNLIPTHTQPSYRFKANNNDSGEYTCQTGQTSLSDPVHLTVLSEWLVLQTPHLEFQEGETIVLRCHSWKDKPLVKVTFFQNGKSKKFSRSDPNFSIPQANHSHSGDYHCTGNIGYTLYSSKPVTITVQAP
“anti-CD19 antibody HuAM4G7, WT (native) IgG1” gave a Kd of 2000 nM.

Each substance was assayed against FcγRIIIaF (assay: SPR).
Substance L328F has a Kd of 5110 nM.

What follows are substances tested against FcγRIIaR (assay: SPR).
Work on A327D yielded a Kd of 536 nM. A327G was tested, and the Kd was 2690 nM. Work on A327N yielded a Kd of 1410 nM. A327Q showed a Kd of 1350 nM. In the case of D265E, the Kd is reported as 2790 nM. Substance H268D has a Kd of 205 nM. Work on H268E yielded a Kd of 269 nM. H268N gave a Kd of 481 nM. H268Q gave a Kd of 544 nM. In the case of L328F, the Kd is reported as 166 nM. P329E was tested, and the Kd was 10000 nM. In the case of S239D/S267E/L328F, the Kd is reported as 2.06 nM. Substance S239E has a Kd of 1250 nM. S239N gave a Kd of 990 nM. In the case of S239Q, the Kd is reported as 1010 nM. With S267A the Kd was 200 nM. S267D was tested, and the Kd was 95.5 nM. Work on S267E yielded a Kd of 29.1 nM. With S267E/A327D the Kd was 51.3 nM. With S267E/A327E the Kd was 29.3 nM. S267E/H268E was tested, and the Kd was 20.6 nM. S267E/H268E/L328F showed a Kd of 3.4 nM. S267E/L328H was tested, and the Kd was 185 nM. S267E/L328I was tested, and the Kd was 11.6 nM. S267E/L328Y gave a Kd of 7.06 nM. In the case of S267E/N325L, the Kd is reported as 20.7 nM. For S267G, the Kd was 517 nM. S298D was tested, and the Kd was 592 nM. With V266D the Kd was 1220 nM. Work on V266M yielded a Kd of 274 nM. V266M/S267E was tested, and the Kd was 28 nM.

These substances were tested against recombinant human FcγRIIb protein (R&D Systems) (human) (UniProt P31994) (assay: SPR (Biacore 3000), antibody captured on protein A/G chip, FcγR injected, 1:1 Langmuir fit).
“anti-CD19 antibody HuAM4G7, WT (native) IgG1” was tested, and the Kd was 1800 nM.
